Assay results as given in paper PMC4753803.

Molecular target: death receptor 5 (DR5) (human (endogenous in MB231)), O14763
Assay: co-IP + pull-down
Conditions: remark: other sources report otherwise

B1: caspase-8, Q14790 1-479 (enzyme)
chain: MDFSRNLYDIGEQLDSEDLASLKFLSLDYIPQRKQEPIKDALMLFQRLQEKRMLEESNLSFLKELLFRINRLDLLITYLNTRKEEMERELQTPGRAQISAYRVMLYQISEEVSRSELRSFKFLLQEEISKCKLDDDMNLLDIFIEMEKRVILGEGKLDILKRVCAQINKSLLKIINDYEEFSKERSSSLEGSPDEFSNGEELCGVMTISDSPREQDSESQTLDKVYQMKSKPRGYCLIINNHNFAKAREKVPKLHSIRDRNGTHLDAGALTTTFEELHFEIKPHDDCTVEQIYEILKIYQLMDHSNMDCFICCILSHGDKGIIYGTDGQEAPIYELTSQFTGLKCPSLAGKPKVFFIQACQGDNYQKGIPVETDSEEQPYLEMDLSSPQTRYIPDEADFLLGMATVNNCVSYRNPAEGTWYIQSLCQSLRERCPRGDDILTILTEVNYEVSNKDDKKNMGKQMPQPTFTLRKKLVFPSD
With B1 the ratio of caspase-8/DR5 in DR5 precipitates, Axl knocked down relative to siNEG was 1.73 fold.
